The text below walks through data of publication doi:10.1101/2020.10.05.326595 (bioRxiv, 2020).

Substitutions are numbered along the chain they refer to. Numbers in names are those of the source.

The data set “crystal structure” deals with the molecule itself. Put plainly: crystal structure.
The data set “SEC-SAXS” deals with the molecule itself. Put plainly: SEC-SAXS.

B1: ZTL G46A:G80R (LOV domain construct, residues 29-165) (domain or fragment, UniProt Q94BT6 29-165, looked up)
chain: GGPIPYPVGNLLHTAPCAFVVTDAVEPDQPIIYVNTVFEMVTGYRAEEVLGRNCRFLQCRGPFAKRRHPLVDSMVVSEIRKCIDEGIEFQGELLNFRKDGSPLMNRLRLTPIYGDDDTITHIIGIQFFIETDIDLGP
For the protein B1, the binding result in “crystal structure” is “binds”.

B2: ZTL G46S:G80R (LOV domain construct, residues 29-165) (domain or fragment, UniProt Q94BT6 29-165, looked up)
chain: B1 chain with A18S
As for B2, the stoichiometry N (in general, a count of units in the complex or per binding partner) in the data set “SEC-SAXS” came out at 2.
